For this test, the target named is GST-ERα (179-312), C/D domains (UniProt P03372). The test is described as follows: pull-down; GST-ERα domains or full length bound to glutathione-Sepharose 4B beads, incubated with recombinant Api5 protein; Western blot.

B1: Recombinant Api5 protein (natural protein)
chain: MPTVEELYRNYGILADATEQVGQHKDAYQVILDGVKGGTKEKRLAAQFIPKFFKHFPELADSAINAQLDLCEDEDVSIRRQAIKELPQFATGENLPRVADILTQLLQTDDSAEFNLVNNALLSIFKMDAKGTLGGLFSQILQGEDIVRERAIKFLSTKLKTLPDEVLTKEVEELILTESKKVLEDVTGEEFVLFMKILSGLKSLQTVSGRQQLVELVAEQADLEQTFNPSDPDCVDRLLQCTRQAVPLFSKNVHSTRFVTYFCEQVLPNLGTLTTPVEGLDIQLEVLKLLAEMSSFCGDMEKLETNLRKLFDKLLEYMPLPPEEAENGENAGNEEPKLQFSYVECLLYSFHQLGRKLPDFLTAKLNAEKLKDFKIRLQYFARGLQVYIRQLRLALQGKTGEALKTEENKIKVVALKITNNINVLIKDLFHIPPSYKSTVTLSWKPVQKVEIGQKRASEDTTSGSPPKKSSAGPKRDARQIYNPPSGKYSSNLGNFNYEQRGAFRGSRGGRGWGTRGNRSRGRLY
On to B1, for which the percent of the binding of Api5 to full length GST-ERα (1-595) is greater than 60%.

For the origin of these results see publication PMC5581047.
